Results as given in the FLAb antibody collection (doi:10.7554/elife.23156).

B1: scFv; the commonest letter at each place (parent)
chain 1: EVKLDETGGGLVQPGRPMKLSCVASGFTFSDYWMNWVRQSPEKGLEWVAQIRNKPYNYETYYSDSVKGRFTISRDDSKSSVYLQMNNLRVEDMGIYYCTGSYYGMDYWGQGTSVTVS
chain 2: DVVMTQTPLSLPVSLGDQASISCRSSQSLVHSNGNTYLRWYLQKPGQSPKVLIYKVSNRFSGVPDRFSGSGSGTDFTLKISRVEAEDLGVYFCSQSTHVPWTFGGGTKLEIK

Key:
fluorescein = variants of: B1; test: Kd (Tite-Seq); settings: with fluorescein; format: scFv 4-4-20, heavy + light
[1] = variants of: B1; test: yeast surface expression (ratio to wild type); higher = more expressed; settings: format: scFv 4-4-20, heavy + light

Row | Kd (fluorescein) [µM] | Variant | yeast surface expression [1]
1 | ≥ 10 | chain 1 EVKLDETGGGLVQPGRPMKLSCVASGFYFSVYWMNWVRQSPEKGLEWVAQIRNKPYNYETYYSDSVKGRFTISRDDSKSSVYLQMNNLRVEDMGIYYCTGSYYGMDYWGQGTSVTVS chain 2 DVVMTQTPLSLPVSLGDQASISCRSSQSLVHSNGNTYLRWYLQKPGQSPKVLIYKVSNRFSGVPDRFSGSGSGTDFTLKISRVEAEDLGVYFCSQSTHVPWTFGGGTKLEIK [chain 1 T28Y D31V] | 0.509
2 | ≥ 10 | chain 1 EVKLDETGGGLVQPGRPMKLSCVASGFTFSDYWMNWVRQSPEKGLEWVAQIRNKPYNYETYYSDSVKGRFTISRDDSKSSVYLQMNNLRVEDMGIYYCTRSIYGMDYWGQGTSVTVS chain 2 DVVMTQTPLSLPVSLGDQASISCRSSQSLVHSNGNTYLRWYLQKPGQSPKVLIYKVSNRFSGVPDRFSGSGSGTDFTLKISRVEAEDLGVYFCSQSTHVPWTFGGGTKLEIK [chain 1 G100R Y102I] | 0.483
3 | ≥ 10 | chain 1 EVKLDETGGGLVQPGRPMKLSCVASGFTFSDYWMNWVRQSPEKGLEWVAQIRNKPYNYETYYSDSVKGRFTISRDDSKSSVYLQMNNLRVEDMGIYYCTGSYYYNDYWGQGTSVTVS chain 2 DVVMTQTPLSLPVSLGDQASISCRSSQSLVHSNGNTYLRWYLQKPGQSPKVLIYKVSNRFSGVPDRFSGSGSGTDFTLKISRVEAEDLGVYFCSQSTHVPWTFGGGTKLEIK [chain 1 G104Y M105N] | 1.13
4 | ≥ 10 | chain 1 EVKLDETGGGLVQPGRPMKLSCVASGFTFSDYWMNWVRQSPEKGLEWVAQIRNKPYNYETYYSDSVKGRFTISRDDSKSSVYLQMNNLRVEDMGIYYCTGMYYGMDYWWQGTSVTVS chain 2 DVVMTQTPLSLPVSLGDQASISCRSSQSLVHSNGNTYLRWYLQKPGQSPKVLIYKVSNRFSGVPDRFSGSGSGTDFTLKISRVEAEDLGVYFCSQSTHVPWTFGGGTKLEIK [chain 1 S101M G109W] | 0.231
5 | ≥ 10 | chain 1 EVKLDETGGGLVQPGRPMKLSCVASGFTFSDYWMNWVRQSPEKGLEWVAQIRNKPYNYETYYSDSVKGRFTISRDDSKSSVYLQMNNLRVEDMGIYYCTPSYYIMDYWGQGTSVTVS chain 2 DVVMTQTPLSLPVSLGDQASISCRSSQSLVHSNGNTYLRWYLQKPGQSPKVLIYKVSNRFSGVPDRFSGSGSGTDFTLKISRVEAEDLGVYFCSQSTHVPWTFGGGTKLEIK [chain 1 G100P G104I] | 0.337
6 | ≥ 10 | chain 1 EVKLDETGGGLVQPGRPMKLSCVASGFTFSDMWQNWVRQSPEKGLEWVAQIRNKPYNYETYYSDSVKGRFTISRDDSKSSVYLQMNNLRVEDMGIYYCTGSYYGMDYWGQGTSVTVS chain 2 DVVMTQTPLSLPVSLGDQASISCRSSQSLVHSNGNTYLRWYLQKPGQSPKVLIYKVSNRFSGVPDRFSGSGSGTDFTLKISRVEAEDLGVYFCSQSTHVPWTFGGGTKLEIK [chain 1 Y32M M34Q] | 0.437
